Test results published in PMC4699637, “Papillomavirus-Associated Tumor Formation Critically Depends on c-Fos Expression Induced by Viral Protein E2 and Bromodomain Protein Brd4”.

B1: dAP CRPV URR WT (dsDNA)
DNA 1: GCATGCGATGACACATTACAC
DNA 2: GTGTAATGTGTCATCGCATGC
B2: dAP CRPV URR mut (mdAP) (dsDNA)
DNA 1: GCATGCGACATATGTTACAC
DNA 2: GTGTAACATATGTCGCATGC

How the values were obtained:
[1] = target: T1, c-Jun (UniProt P05412 1-331); assay: EMSA; homodimer; details: protein: recombinant; chain copies: 2; label: 32P; blunt
[2] = target: T1, c-Jun; assay: competition; homodimer; 100-fold excess unlabeled vs N1; details: protein: recombinant; chain copies: 2; blunt

T1 sequence (P05412 whole entry): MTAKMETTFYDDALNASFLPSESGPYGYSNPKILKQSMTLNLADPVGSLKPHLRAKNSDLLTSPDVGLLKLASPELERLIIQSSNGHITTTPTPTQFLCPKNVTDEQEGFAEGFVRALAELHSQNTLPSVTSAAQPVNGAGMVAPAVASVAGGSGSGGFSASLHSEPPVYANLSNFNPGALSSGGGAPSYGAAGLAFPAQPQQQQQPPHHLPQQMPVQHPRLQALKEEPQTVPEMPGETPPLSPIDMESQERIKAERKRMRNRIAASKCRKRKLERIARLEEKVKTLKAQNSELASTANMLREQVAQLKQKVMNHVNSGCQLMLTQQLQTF

Binder	binding result [1]	binding result [2]
B1	binds	
B2		no binding
